{
  "source": "patent US20050032039A1",
  "target": "HLA class I",
  "assay": "cell-based or functional assay",
  "data": [
    {"substance": "W6/32, the class I-specific antibody", "values": [
      {"measurement": "reduction in HIV-1 envelope-specific CTL activity (PBMCs from LB as effector cells, E:T 25:1, 1:4 dilution of W6/32 hybridoma supernatant)", "value": 73, "unit": "%"},
      {"measurement": "specific lysis value with W6/32 (PBMCs from LB, E:T 25:1)", "value": 6.2, "unit": "%"},
      {"measurement": "specific lysis value without W6/32 (PBMCs from LB, E:T 25:1)", "value": 23.2, "unit": "%"}
    ]}
  ]
}
